The values that follow come from US20100272719A1.

The target of this experiment is VEGF (isoform not given). Nature of the experiment: cell-based or functional assay.

Avastin (bevacizumab) (antibody) showed an HUVEC tube formation on Matrigel, percent inhibition at 50 µg/ml of 41.3%.
In turn, “FP3′ (FLTd2-KDRd3-KDRd4-Fc chimeric fusion protein) (Fc fusion)” displayed an HUVEC chemotactic migration (Transwell), percent blocked at 10 µg FP3′ of 78.3%; an HUVEC chemotactic migration (Transwell), percent blocked at 20 µg FP3′ of 94.7%; an HUVEC tube formation on Matrigel, percent inhibition at 50 µg/ml of 72.3%; a VEGF-induced cell proliferation, percent blocked at 10.7 nM FP3′ of 82.6%. This substance displayed a rat aortic ring microvessel sprouting, percent inhibition at 100 µg/ml of 70.4%; a rat aortic ring microvessel sprouting, percent inhibition at 200 µg/ml of 90%; a rat aortic ring vessel outgrowth, more inhibition than Avastin of 15 to 33%.
